Measurements published in the supplement of paper PMC5998384.

Legend:
HeLa Kyoto [1] = experiment: solubility change mitosis vs G1/S (difference of NP-40 vs SDS log2 ratios) (log2 ratio difference); higher = more soluble in mitosis
HeLa Kyoto [2] = experiment: melting temperature (median over replicates), in situ; higher = more thermally stable
HeLa Kyoto [3] = experiment: solubility in G1/S (NP-40 vs SDS abundance) (log2 ratio); higher = more soluble; details: cell cycle stage: G1/S
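Wherever melting temperature (median over replicates), in situ is given: HeLa Kyoto cells synchronized by double thymidine or nocodazole block, proteins quantified by TMT10plex mass spectrometry, three independent biological replicates.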
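Wherever solubility change mitosis vs G1/S (difference of NP-40 vs SDS log2 ratios) is given: synchronized HeLa Kyoto cells (double thymidine block for G1/S, nocodazole release for mitosis), protein amounts in NP-40 versus SDS lysates quantified by mass spectrometry, three biological replicates.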
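Wherever solubility in G1/S (NP-40 vs SDS abundance) is given: HeLa Kyoto cells arrested at G1/S by double thymidine block, proteins quantified by TMT10plex mass spectrometry in mild NP-40 versus SDS extracts, three biological replicates.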

Sequence | solubility change mitosis (log2) (HeLa Kyoto [1]) | melting temperature (HeLa Kyoto [2]; cell cycle stage: mitosis) [°C] | solubility in G1/S (log2) (HeLa Kyoto [3]) | melting temperature (HeLa Kyoto [2]; cell cycle stage: G1/S) [°C]
MNRVNDPLIFIRDIKPGLKNLNVVFIVLEIGRVTKTKDGHEVRSCKVADKTGSITISVWDEIGGLIQPGDIIRLTRGYASMWKGCLTLYTGRGGELQKIGEFCMVYSEVPNFSEPNPDYRGQQNKGAQSEQKNNSMNSNMGTGTFGPVGNGVHTGPESREHQFSHAGRSNGRGLINPQLQGTASNQTVMTTISNGRDPRRAFKR [NABP1] | -0.222 | 50.7 | 0.0163 | 
MDNRFATAFVIACVLSLISTIYMAASIGTDFWYEYRSPVQENSSDLNKSIWDEFISDEADEKTYNDALFRYNGTVGLWRRCITIPKNMHWYSPPERTESFDVVTKCVSFTLTEQFMEKFVDPGNHNSGIDLLRTYLWRCQFLLPFVSLGLMCFGALIGLCACICRSLYPTIATGILHLLAGLCTLGSVSCYVAGIELLHQKLELPDNVSGEFGWSFCLACVSAPLQFMASALFIWAAHTNRKEYTLMKAYRVA [CLDND1] | 0.186 | 58.6 | -0.395 | 
MDDKAFTKELDQWVEQLNECKQLNENQVRTLCEKAKEILTKESNVQEVRCPVTVCGDVHGQFHDLMELFRIGGKSPDTNYLFMGDYVDRGYYSVETVTLLVALKVRYPERITILRGNHESRQITQVYGFYDECLRKYGNANVWKYFTDLFDYLPLTALVDGQIFCLHGGLSPSIDTLDHIRALDRLQEVPHEGPMCDLLWSDPDDRGGWGISPRGAGYTFGQDISETFNHANGLTLVSRAHQLVMEGYNWCHDRNVVTIFSAPNYCYRCGNQAAIMELDDTLKYSFLQFDPAPRRGEPHVTRRTPDYFL [PPP2CB] | -0.00731 | 54.8 | 0.0545 | 45.7
MACLSPSQLQKFQQDGFLVLEGFLSAEECVAMQQRIGEIVAEMDVPLHCRTEFSTQEEEQLRAQGSTDYFLSSGDKIRFFFEKGVFDEKGNFLVPPEKSINKIGHALHAHDPVFKSITHSFKVQTLARSLGLQMPVVVQSMYIFKQPHFGGEVSPHQDASFLYTEPLGRVLGVWIAVEDATLENGCLWFIPGSHTSGVSRRMVRAPVGSAPGTSFLGSEPARDNSLFVPTPVQRGALVLIHGEVVHKSKQNLSDRSRQAYTFHLMEASGTTWSPENWLQPTAELPFPQLYT [PHYHD1] | -0.137 | 51.2 | 0.198 | 50.2
MAAGKFASLPRNMPVNHQFPLASSMDLLSSRSPLAEHRPDAYQDVSIHGTLPRKKKGPPPIRSCDDFSHMGTLPHSKSPRQNSPVTQDGIQESPWQDRHGETFTFRDPHLLDPTVEYVKFSKERHIMDRTPEKLKKELEEELLLSSEDLRSHAWYHGRIPRQVSENLVQRDGDFLVRDSLSSPGNFVLTCQWKNLAQHFKINRTVLRLSEAYSRVQYQFEMESFDSIPGLVRCYVGNRRPISQQSGAIIFQPINRTVPLRCLEEHYGTSPGQAREGSLTKGRPDVAKRLSLTMGGVQAREQNLPRGNLLRNKEKSGSQPACLDHMQDRRALSLKAHQSESYLPIGCKLPPQSSGVDTSPCPNSPVFRTGSEPALSPAVVRRVSSDARAGEALRGSDSQLCPKPPPKPCKVPFLKVPSSPSAWLNSEANYCELNPAFATGCGRGAKLPSCAQGSHTELLTAKQNEAPGPRNSGVNYLILDDDDRERPWEPAAAQMEKGQWDKGEFVTPLLETVSSFRPNEFESKFLPPENKPLETAMLKRAKELFTNNDPKVIAQHVLSMDCRVARILGVSEEMRRNMGVSSGLELITLPHGHQLRLDIIERHNTMAIGIAVDILGCTGTLEDRAATLSKIIQVAVELKDSMGDLYSFSALMKALEMPQITRLEKTWTALRHQYTQTAILYEKQLKPFSKLLHEGRESTCVPPNNVSVPLLMPLVTLMERQAVTFEGTDMWEKNDQSCEIMLNHLATARFMAEAADSYRMNAERILAGFQPDEEMNEICKTEFQMRLLWGSKGAQVNQTERYEKFNQILTALSRKLEPPPVKQAEL [BCAR3] | 0.0356 | 50.1 | 0.00142 | 46.3
MGEDAAQAEKFQHPGSDMRQEKPSSPSPMPSSTPSPSLNLGNTEEAIRDNSQVNAVTVLTLLDKLVNMLDAVQENQHKMEQRQISLEGSVKGIQNDLTKLSKYQASTSNTVSKLLEKSRKVSAHTRAVKERMDRQCAQVKRLENNHAQLLRRNHFKVLIFQEENEIPASVFVKQPVSGAVEGKEELPDENKSLEETLHTVDLSSDDDLPHDEEALEDSAEEKVEESRAEKIKRSSLKKVDSLKKAFSRQNIEKKMNKLGTKIVSVERREKIKKSLTSNHQKISSGKSSPFKVSPLTFGRKKVREGESHAENETKSEDLPSSEQMPNDQEEESFAEGHSEASLASALVEGEIAEEAAEKATSRGSNSGMDSNIDLTIVEDEEEESVALEQAQKVRYEGSYALTSEEAERSDGDPVQPAVLQVHQTS [SDPR] | 0.043 | 53.4 | -0.0681 | 53.9
MLAYCVQDATVVDVEKRRNPSKHYVYIINVTWSDSTSQTIYRRYSKFFDLQMQLLDKFPIEGGQKDPKQRIIPFLPGKILFRRSHIRDVAVKRLKPIDEYCRALVRLPPHISQCDEVFRFFEARPEDVNPPKEDYGSSKRKSVWLSSWAESPKKDVTGADATAEPMILEQYVVVSNYKKQENSELSLQAGEVVDVIEKNESGWWFVSTSEEQGWVPATYLEAQNGTRDDSDINTSKTGEVSKRRKAHLRRLDRRWTLGGMVNRQHSREEKYVTVQPYTSQSKDEIGFEKGVTVEVIRKNLEGWWYIRYLGKEGWAPASYLKKAKDDLPTRKKNLAGPVEIIGNIMEISNLLNKKASGDKETPPAEGEGHEAPIAKKEISLPILCNASNGSAVGVPDRTVSRLAQGSPAVARIAPQRAQISSPNLRTRPPPRRESSLGFQLPKPPEPPSVEVEYYTIAEFQSCISDGISFRGGQKAEVIDKNSGGWWYVQIGEKEGWAPASYIDKRKKPNLSRRTSTLTRPKVPPPAPPSKPKEAEEGPTGASESQDSPRKLKYEEPEYDIPAFGFDSEPELSEEPVEDRASGERRPAQPHRPSPASSLQRARFKVGESSEDVALEEETIYENEGFRPYAEDTLSARGSSGDSDSPGSSSLSLTRKNSPKSGSPKSSSLLKLKAEKNAQAEMGKNHSSASFSSSITINTTCCSSSSSSSSSLSKTSGDLKPRSASDAGIRGTPKVRAKKDADANAGLTSCPRAKPSVRPKPFLNRAESQSQEKMDISTLRRQLRPTGQLRGGLKGSKSEDSELPPQTASEAPSEGSRRSSSDLITLPATTPPCPTKKEWEGPATSYMTCSAYQKVQDSEISFPAGVEVQVLEKQESGWWYVRFGELEGWAPSHYLVLDENEQPDPSGKELDTVPAKGRQNEGKSDSLEKIERRVQALNTVNQSKKATPPIPSKPPGGFGKTSGTPAVKMRNGVRQVAVRPQSVFVSPPPKDNNLSCALRRNESLTATDGLRGVRRNSSFSTARSAAAEAKGRLAERAASQGSDSPLLPAQRNSIPVSPVRPKPIEKSQFIHNNLKDVYVSIADYEGDEETAGFQEGVSMEVLERNPNGWWYCQILDGVKPFKGWVPSNYLEKKN [SH3PXD2A] | 0.1 | 49 | 0.0755 | 49.5
MSVQSSSGSLEGPPSWSQLSTSPTPGSAAAARSLLNHTPPSGRPREGAMDELHSLDPRRQELLEARFTGVASGSTGSTGSCSVGAKASTNNESSNHSFGSLGSLSDKESETPEKKQSESSRGRKRKAENQNESSQGKSIGGRGHKISDYFEYQGGNGSSPVRGIPPAIRSPQNSHSHSTPSSSVRPNSPSPTALAFGDHPIVQPKQLSFKIIQTDLTMLKLAALESNKIQDLEKKEGRIDDLLRANCDLRRQIDEQQKLLEKYKERLNKCISMSKKLLIEKSTQEKLSSREKSMQDRLRLGHFTTVRHGASFTEQWTDGFAFQNLVKQQEWVNQQREDIERQRKLLAKRKPPTANNSQAPSTNSEPKQRKNKAVNGAENDPFVRPNLPQLLTLAEYHEQEEIFKLRLGHLKKEEAEIQAELERLERVRNLHIRELKRINNEDNSQFKDHPTLNERYLLLHLLGRGGFSEVYKAFDLYEQRYAAVKIHQLNKSWRDEKKENYHKHACREYRIHKELDHPRIVKLYDYFSLDTDTFCTVLEYCEGNDLDFYLKQHKLMSEKEARSIVMQIVNALRYLNEIKPPIIHYDLKPGNILLVDGTACGEIKITDFGLSKIMDDDSYGVDGMDLTSQGAGTYWYLPPECFVVGKEPPKISNKVDVWSVGVIFFQCLYGRKPFGHNQSQQDILQENTILKATEVQFPVKPVVSSEAKAFIRRCLAYRKEDRFDVHQLANDPYLLPHMRRSNSSGNLHMAGLTASPTPPSSSIITY [TLK1] | -0.0453 | 53.3 | 0.061 | 50.1
MWHSVGLTLLVFVATLLIVLLLMVCGWYFVWHLFLSKFKFLRELVGDTGSQEGDHEPSGSETEEDTSSSPHRIRSARQRRAPADEGHRPLT [SMIM13] | -0.138 |  | -0.0724 | 55.5
MAGIPGLLFLLFFLLCAVGQVSPYSAPWKPTWPAYRLPVVLPQSTLNLAKPDFGAEAKLEVSSSCGPQCHKGTPLPTYEEAKQYLSYETLYANGSRTETQVGIYILSSSGDGAQHRDSGSSGKSRRKRQIYGYDSRFSIFGKDFLLNYPFSTSVKLSTGCTGTLVAEKHVLTAAHCIHDGKTYVKGTQKLRVGFLKPKFKDGGRGANDSTSAMPEQMKFQWIRVKRTHVPKGWIKGNANDIGMDYDYALLELKKPHKRKFMKIGVSPPAKQLPGGRIHFSGYDNDRPGNLVYRFCDVKDETYDLLYQQCDAQPGASGSGVYVRMWKRQQQKWERKIIGIFSGHQWVDMNGSPQDFNVAVRITPLKYAQICYWIKGNYLDCREG [PRSS23] | 0.203 | 53.6 | -0.403 | 53.2
MSQAEFEKAAEEVRHLKTKPSDEEMLFIYGHYKQATVGDINTERPGMLDFTGKAKWDAWNELKGTSKEDAMKAYINKVEELKKKYGI [DBI] | 0.148 | 53.8 | -0.236 | 53.7
MASKLLRAVILGPPGSGKGTVCQRIAQNFGLQHLSSGHFLRENIKASTEVGEMAKQYIEKSLLVPDHVITRLMMSELENRRGQHWLLDGFPRTLGQAEALDKICEVDLVISLNIPFETLKDRLSRRWIHPPSGRVYNLDFNPPHVHGIDDVTGEPLVQQEDDKPEAVAARLRQYKDVAKPVIELYKSRGVLHQFSGTETNKIWPYVYTLFSNKITPIQSKEAY [AK4] | 0.0928 | 51.3 | 0.384 | 
MSGSVLFTAGERWRCFLTPSRSSLYWALHNFCCRKKSTTPKKITPNVTFCDENAKEPENALDKLFSSEQQASILHVLNTASTKELEAFRLLRGRRSINIVEHRENFGPFQNLESLMNVPLFKYKSTVQVCNSILCPKTGREKRKSPENRFLRKLLKPDIERERLKAVNSIISIVFGTRRIAWAHLDRKLTVLDWQQSDRWSLMRGIYSSSVYLEEISSIISKMPKADFYVLEKTGLSIQNSSLFPILLHFHIMEAMLYALLNKTFAQDGQHQVLSMNRNAVGKHFELMIGDSRTSGKELVKQFLFDSILKADPRVFFPSDKIVHYRQMFLSTELQRVEELYDSLLQAIAFYELAVFDSQP [TEFM] | 0.119 | 49.1 | -0.375 | 50.9
MEPAVSLAVCALLFLLWVRLKGLEFVLIHQRWVFVCLFLLPLSLIFDIYYYVRAWVVFKLSSAPRLHEQRVRDIQKQVREWKEQGSKTFMCTGRPGWLTVSLRVGKYKKTHKNIMINLMDILEVDTKKQIVRVEPLVTMGQVTALLTSIGWTLPVLPELDDLTVGGLIMGTGIESSSHKYGLFQHICTAYELVLADGSFVRCTPSENSDLFYAVPWSCGTLGFLVAAEIRIIPAKKYVKLRFEPVRGLEAICAKFTHESQRQENHFVEGLLYSLDEAVIMTGVMTDEAEPSKLNSIGNYYKPWFFKHVENYLKTNREGLEYIPLRHYYHRHTRSIFWELQDIIPFGNNPIFRYLFGWMVPPKISLLKLTQGETLRKLYEQHHVVQDMLVPMKCLQQALHTFQNDIHVYPIWLCPFILPSQPGLVHPKGNEAELYIDIGAYGEPRVKHFEARSCMRQLEKFVRSVHGFQMLYADCYMNREEFWEMFDGSLYHKLREKLGCQDAFPEVYDKICKAARH [DHCR24] | -0.166 | 52.3 | -0.264 | 51.3
